Results as given in the supplement of paper PMC10567573.

B1: ZNF649 (parent)
chain: DECEKAYFYMSCLVKHKRIHSREK
B2: CCND1 (parent)
chain: PEAEENKQIIRKHAQTFVALCATD

Variants of: B1
Assay: protein stability index of a GFP-peptide fusion (GPS, HEK-293T) (PSI 1-6); higher = more stable
Conditions: c terminus: a fixed tail appended
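Also: lentivirally expressed fusions sorted by FACS into six bins by GFP to DsRed ratio, PSI derived from sequencing read proportions per bin multiplied by bin number.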

Row | Variant | protein stability index
1 | DECEKAYFYMSCLVKHKRIHSREY [K24Y] | 2.05
2 | DECEKAYFYMSCLVKHKRIHSREV [K24V] | 2.05
3 | DECEKAYFYMSCLVKHKRIHSREW [K24W] | 1.92

Variants of: B2
Assay: as above
Conditions: c terminus: a fixed tail appended

Row | Variant | protein stability index
4 | WEAEENKQIIRKHAQTFVALCATD [P1W] | 3.02
5 | DEAEENKQIIRKHAQTFVALCATD [P1D] | 3.29
6 | EEAEENKQIIRKHAQTFVALCATD [P1E] | 3.45
7 | IEAEENKQIIRKHAQTFVALCATD [P1I] | 2.36
8 | VEAEENKQIIRKHAQTFVALCATD [P1V] | 2.66
9 | TEAEENKQIIRKHAQTFVALCATD [P1T] | 2.18
10 | LEAEENKQIIRKHAQTFVALCATD [P1L] | 2.76
11 | QEAEENKQIIRKHAQTFVALCATD [P1Q] | 2.78
12 | CEAEENKQIIRKHAQTFVALCATD [P1C] | 1.97
13 | KEAEENKQIIRKHAQTFVALCATD [P1K] | 2.07
14 | HEAEENKQIIRKHAQTFVALCATD [P1H] | 3.19
15 | AEAEENKQIIRKHAQTFVALCATD [P1A] | 3.14
16 | FEAEENKQIIRKHAQTFVALCATD [P1F] | 2.44
17 | SEAEENKQIIRKHAQTFVALCATD [P1S] | 2.34
18 | GEAEENKQIIRKHAQTFVALCATD [P1G] | 2.78
19 | REAEENKQIIRKHAQTFVALCATD [P1R] | 2.59
20 | NEAEENKQIIRKHAQTFVALCATD [P1N] | 2.52
21 | MEAEENKQIIRKHAQTFVALCATD [P1M] | 2.68
22 | YEAEENKQIIRKHAQTFVALCATD [P1Y] | 3.2
23 | PEAEENAQIIRKHAQTFVALCATD [K7A] | 3.37
24 | PEAEENGQIIRKHAQTFVALCATD [K7G] | 3.26
25 | PEAEENNQIIRKHAQTFVALCATD [K7N] | 3.78
26 | PEAEENFQIIRKHAQTFVALCATD [K7F] | 2.71

Row | Variant | protein stability index
27 | PEAEENDQIIRKHAQTFVALCATD [K7D] | 3.69
28 | PEAEENYQIIRKHAQTFVALCATD [K7Y] | 2.62
29 | PEAEENPQIIRKHAQTFVALCATD [K7P] | 3.19
30 | PEAEENWQIIRKHAQTFVALCATD [K7W] | 2.61
31 | PEAEENMQIIRKHAQTFVALCATD [K7M] | 3.17
32 | PEAEENQQIIRKHAQTFVALCATD [K7Q] | 2.98
33 | PEAEENIQIIRKHAQTFVALCATD [K7I] | 2.6
34 | PEAEENVQIIRKHAQTFVALCATD [K7V] | 2.54
35 | PEAEENTQIIRKHAQTFVALCATD [K7T] | 2.64
36 | PEAEENLQIIRKHAQTFVALCATD [K7L] | 2.95
37 | PEAEENRQIIRKHAQTFVALCATD [K7R] | 3.25
38 | PEAEENHQIIRKHAQTFVALCATD [K7H] | 3.36
39 | PEAEENCQIIRKHAQTFVALCATD [K7C] | 2.92
40 | PEAEENSQIIRKHAQTFVALCATD [K7S] | 2.53
41 | PEAEENEQIIRKHAQTFVALCATD [K7E] | 3.84
42 | PEAEENKIIIRKHAQTFVALCATD [Q8I] | 2.19
43 | PEAEENKLIIRKHAQTFVALCATD [Q8L] | 2.45
44 | PEAEENKWIIRKHAQTFVALCATD [Q8W] | 2.05
45 | PEAEENKGIIRKHAQTFVALCATD [Q8G] | 2.85
46 | PEAEENKKIIRKHAQTFVALCATD [Q8K] | 2.33
47 | PEAEENKAIIRKHAQTFVALCATD [Q8A] | 2.77
48 | PEAEENKNIIRKHAQTFVALCATD [Q8N] | 3.13
49 | PEAEENKCIIRKHAQTFVALCATD [Q8C] | 2.24

Row | Variant | protein stability index
50 | PEAEENKSIIRKHAQTFVALCATD [Q8S] | 2.58
51 | PEAEENKRIIRKHAQTFVALCATD [Q8R] | 3.07
52 | PEAEENKMIIRKHAQTFVALCATD [Q8M] | 2.85
53 | PEAEENKYIIRKHAQTFVALCATD [Q8Y] | 2.55
54 | PEAEENKVIIRKHAQTFVALCATD [Q8V] | 2.07
55 | PEAEENKFIIRKHAQTFVALCATD [Q8F] | 2.24
56 | PEAEENKTIIRKHAQTFVALCATD [Q8T] | 1.7
57 | PEAEENKDIIRKHAQTFVALCATD [Q8D] | 3.54
58 | PEAEENKPIIRKHAQTFVALCATD [Q8P] | 1.95
59 | PEAEENKHIIRKHAQTFVALCATD [Q8H] | 3.22
60 | PEAEENKEIIRKHAQTFVALCATD [Q8E] | 3.48
61 | PEAEENKQINRKHAQTFVALCATD [I10N] | 3.04
62 | PEAEENKQIMRKHAQTFVALCATD [I10M] | 3.5
63 | PEAEENKQIRRKHAQTFVALCATD [I10R] | 3.19
64 | PEAEENKQIPRKHAQTFVALCATD [I10P] | 3.14
65 | PEAEENKQIKRKHAQTFVALCATD [I10K] | 2.92
66 | PEAEENKQIDRKHAQTFVALCATD [I10D] | 3.14
67 | PEAEENKQIERKHAQTFVALCATD [I10E] | 3.64
68 | PEAEENKQIQRKHAQTFVALCATD [I10Q] | 2.81
69 | PEAEENKQICRKHAQTFVALCATD [I10C] | 3.13
70 | PEAEENKQIHRKHAQTFVALCATD [I10H] | 3.5
71 | PEAEENKQIARKHAQTFVALCATD [I10A] | 2.79
72 | PEAEENKQIFRKHAQTFVALCATD [I10F] | 2.48

Row | Variant | protein stability index
73 | PEAEENKQILRKHAQTFVALCATD [I10L] | 3.48
74 | PEAEENKQIGRKHAQTFVALCATD [I10G] | 2.53
75 | PEAEANKQIIRKHAQTFVALCATD [E5A] | 2.05
76 | PEAEFNKQIIRKHAQTFVALCATD [E5F] | 2.12
77 | PEAECNKQIIRKHAQTFVALCATD [E5C] | 1.86
78 | PEAEVNKQIIRKHAQTFVALCATD [E5V] | 2.55
79 | PEAERNKQIIRKHAQTFVALCATD [E5R] | 1.93
80 | PEAEGNKQIIRKHAQTFVALCATD [E5G] | 2.47
81 | PEAESNKQIIRKHAQTFVALCATD [E5S] | 1.79
82 | PEAEDNKQIIRKHAQTFVALCATD [E5D] | 2.93
83 | PEAEINKQIIRKHAQTFVALCATD [E5I] | 2.05
84 | PEAEYNKQIIRKHAQTFVALCATD [E5Y] | 2.21
85 | PEAEQNKQIIRKHAQTFVALCATD [E5Q] | 2.33
86 | PEAEPNKQIIRKHAQTFVALCATD [E5P] | 2.33
87 | PEAEKNKQIIRKHAQTFVALCATD [E5K] | 2.17
88 | PEAEHNKQIIRKHAQTFVALCATD [E5H] | 2.24
89 | PEAENNKQIIRKHAQTFVALCATD [E5N] | 2.25
90 | PEAEWNKQIIRKHAQTFVALCATD [E5W] | 2.04
91 | PEAELNKQIIRKHAQTFVALCATD [E5L] | 1.91
92 | PEAEMNKQIIRKHAQTFVALCATD [E5M] | 2.99
93 | PEAETNKQIIRKHAQTFVALCATD [E5T] | 1.69
94 | PEFEENKQIIRKHAQTFVALCATD [A3F] | 2.71
